Test results taken from patent US20230250154A1 (CYTONICS, published 2023).

T1: MMP7 (UniProt P09237 95-267, limits assumed)
T1 sequence (looked up): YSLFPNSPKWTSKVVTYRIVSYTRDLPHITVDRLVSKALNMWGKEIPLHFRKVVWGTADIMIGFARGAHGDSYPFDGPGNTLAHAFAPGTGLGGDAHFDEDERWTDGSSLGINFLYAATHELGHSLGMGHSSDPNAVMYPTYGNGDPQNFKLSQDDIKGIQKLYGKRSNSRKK

T2: MMP2 (human, UniProt P08253 110-660, limits assumed)
T2 sequence (looked up): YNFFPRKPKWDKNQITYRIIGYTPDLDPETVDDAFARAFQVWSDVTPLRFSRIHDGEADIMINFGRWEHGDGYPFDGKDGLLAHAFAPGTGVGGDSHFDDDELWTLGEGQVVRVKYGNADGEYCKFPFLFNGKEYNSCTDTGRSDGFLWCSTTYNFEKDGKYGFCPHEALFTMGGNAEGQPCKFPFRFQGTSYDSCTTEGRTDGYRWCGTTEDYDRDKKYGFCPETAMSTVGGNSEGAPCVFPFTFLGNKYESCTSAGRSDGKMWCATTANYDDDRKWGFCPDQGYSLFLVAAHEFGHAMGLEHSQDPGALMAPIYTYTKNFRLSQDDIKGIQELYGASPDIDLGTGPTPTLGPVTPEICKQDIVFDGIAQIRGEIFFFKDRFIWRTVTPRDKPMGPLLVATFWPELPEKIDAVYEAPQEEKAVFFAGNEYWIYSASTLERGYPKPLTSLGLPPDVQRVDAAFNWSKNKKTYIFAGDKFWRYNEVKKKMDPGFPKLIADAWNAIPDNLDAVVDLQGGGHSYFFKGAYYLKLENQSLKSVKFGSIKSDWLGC

T3: ADAMTS5 (human, UniProt Q9UNA0 262-622, limits assumed)
T3 sequence (looked up): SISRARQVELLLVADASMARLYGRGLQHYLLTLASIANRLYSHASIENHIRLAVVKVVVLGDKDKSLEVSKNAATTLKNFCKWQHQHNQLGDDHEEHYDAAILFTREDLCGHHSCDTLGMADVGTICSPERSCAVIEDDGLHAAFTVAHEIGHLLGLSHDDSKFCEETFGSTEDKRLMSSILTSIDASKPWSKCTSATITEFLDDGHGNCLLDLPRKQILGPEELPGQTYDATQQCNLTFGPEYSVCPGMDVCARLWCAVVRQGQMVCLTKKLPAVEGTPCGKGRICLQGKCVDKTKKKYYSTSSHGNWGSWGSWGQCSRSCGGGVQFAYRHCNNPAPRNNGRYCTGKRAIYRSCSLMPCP

T4: MMP1 (human, UniProt P03956 100-469, limits assumed)
T4 sequence (looked up): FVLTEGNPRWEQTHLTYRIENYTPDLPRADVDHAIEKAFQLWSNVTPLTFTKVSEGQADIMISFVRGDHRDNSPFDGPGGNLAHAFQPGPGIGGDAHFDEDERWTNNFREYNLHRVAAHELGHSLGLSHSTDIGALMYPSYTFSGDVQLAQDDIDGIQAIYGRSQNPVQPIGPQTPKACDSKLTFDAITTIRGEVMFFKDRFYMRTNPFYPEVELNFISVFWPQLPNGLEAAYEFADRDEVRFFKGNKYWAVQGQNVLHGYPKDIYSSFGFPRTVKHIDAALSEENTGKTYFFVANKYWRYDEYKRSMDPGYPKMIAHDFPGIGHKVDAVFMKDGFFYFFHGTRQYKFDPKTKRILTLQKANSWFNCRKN

T5: Cathepsin G (UniProt P08311 21-244)
T5 sequence (looked up): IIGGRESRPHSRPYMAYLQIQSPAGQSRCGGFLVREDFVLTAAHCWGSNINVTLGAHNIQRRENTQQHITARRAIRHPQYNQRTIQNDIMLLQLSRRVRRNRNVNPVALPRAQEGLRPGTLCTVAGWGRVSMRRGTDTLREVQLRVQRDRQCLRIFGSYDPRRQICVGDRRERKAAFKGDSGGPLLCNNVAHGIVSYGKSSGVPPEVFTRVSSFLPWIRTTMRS

T6: ADAMTS4 (human, UniProt O75173 213-685, limits assumed)
T6 sequence (looked up): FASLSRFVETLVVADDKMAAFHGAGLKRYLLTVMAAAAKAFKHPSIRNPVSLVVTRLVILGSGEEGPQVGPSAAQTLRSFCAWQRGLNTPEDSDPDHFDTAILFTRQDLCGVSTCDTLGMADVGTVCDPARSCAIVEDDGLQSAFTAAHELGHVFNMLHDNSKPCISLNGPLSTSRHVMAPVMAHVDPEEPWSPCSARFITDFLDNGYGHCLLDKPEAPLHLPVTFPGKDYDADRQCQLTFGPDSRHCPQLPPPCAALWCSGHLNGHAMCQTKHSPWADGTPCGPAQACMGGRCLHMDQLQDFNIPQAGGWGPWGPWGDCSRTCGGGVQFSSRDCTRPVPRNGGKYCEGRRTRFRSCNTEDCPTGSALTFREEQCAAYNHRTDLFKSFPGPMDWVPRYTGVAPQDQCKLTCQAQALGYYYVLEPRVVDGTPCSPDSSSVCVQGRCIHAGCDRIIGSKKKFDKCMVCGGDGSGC

B1: Variant A2M, bait region SEQ ID NO 7 (other)
chain: SVSGKPQYMVLVPSLLHTETTEKGCVLLSYLNETVTVSASLESVRGNRSLFTDLEAENDVLHCVAFAVPKSSSNEEVMFLTVQVKGPTQEFKKRTTVMVKNEDSLVFVQTDKSIYKPGQTVKFRVVSMDENFHPLNELIPLVYIQDPKGNRIAQWQSFQLEGGLKQFSFPLSSEPFQGSYKVVVQKKSGGRTEHPFTVEEFVLPKFEVQVTVPKIITILEEEMNVSVCGLYTYGKPVPGHVTVSICRKYSDASDCHGEDSQAFCEKFSGQLNSHGCFYQQVKTKVFQLKRKEYEMKLHTEAQIQEEGTVVELTGRQSSEITRTITKLSFVKVDSHFRQGIPFFGQVRLVDGKGVPIPNKVIFIRGNEANYYSNATTDEHGLVQFSINTTNVMGTSLTVRVNYKDRSPCYGYQWVSEEHEEAHHTAYLVFSPSKSFVHLEPMSHELPCGHTQTVQAHYILNGGTLLGLKKLSFYYLIMAKGGIVRTGTHGLLVKQEDMKGHFSISIPVKSDIAPVARLLIYAVLPTGDVIGDSAKYDVENCLANKVDLSFSPSQSLPASHAHLRVTAAPQSVCALRAVDQSVLLMKPDAELSASSVYNLLPEKDLTGFPGPLNDQDDEDCINRHNVYINGITYTPVSSTNEKDMYSFLEDMGLKAFTNSKIRKPKMCPQLEHGPEGEGEGEGIPENFFGVRYSEDLVVQISELEGRGSVEEPHTKLRKYFPETWIWDLVVVNSAGVAEVGVTVPDTITEWKAGAFCLSEDAGLGISSTASLRAFQPFFVELTMPYSVIRGEAFTLKATVLNYLPKCIRVSVQLEASPAFLAVPVEKEQAPHCICANGRQTVSWAVTPKSLGNVNFTVSAEALESQELCGTEVPSVPEHGRKDTVIKPLLVEPEGLEKETTFNSLLCPSGGEVSEELSLKLPPNVVEESARASVSVLGDILGSAMQNTQNLLQMPYGCGEQNMVLFAPNIYVLDYLNETQQLTPEIKSKAIGYLNTGYQRQLNYKHYDGSYSTFGERYGRNQGNTWLTAFVLKTFAQARAYIFIDEAHITQALIWLSQRQKDNGCFRSSGSLLNNAIKGGVEDEVTLSAYITIALLEIPLTVTHPVVRNALFCLESAWKTAQEGDHGSHVYTKALLAYAFALAGNQDKRKEVLKSLNEEAVKKDNSVHWERPQKPKAPVGHFYEPQAPSAEVEMTSYVLLAYLTAQPAPTSEDLTSATNIVKWITKQQNAQGGFSSTQDTVVALHALSKYGAATFTRTGKAAQVTIQSSGTFSSKFQVDNNNRLLLQQVSLPELPGEYSMKVTGEGCVYLQTSLKYNILPEKEEFPFALGVQTLPQTCDEPKAHTSFQISLSVSYTGSRSASNMAIVDVKMVSGFIPLKPTVKMLERSNHVSRTEVSSNHVLIYLDKVSNQTLSLFFTVLQDVPVRDLKPAIVKVYDYYETDEFAIAEYNAPCSKDLGNADYKDDDDKGASHHHHHH
B2: Variant A2M, bait region SEQ ID NO 8 (other)
chain: SVSGKPQYMVLVPSLLHTETTEKGCVLLSYLNETVTVSASLESVRGNRSLFTDLEAENDVLHCVAFAVPKSSSNEEVMFLTVQVKGPTQEFKKRTTVMVKNEDSLVFVQTDKSIYKPGQTVKFRVVSMDENFHPLNELIPLVYIQDPKGNRIAQWQSFQLEGGLKQFSFPLSSEPFQGSYKVVVQKKSGGRTEHPFTVEEFVLPKFEVQVTVPKIITILEEEMNVSVCGLYTYGKPVPGHVTVSICRKYSDASDCHGEDSQAFCEKFSGQLNSHGCFYQQVKTKVFQLKRKEYEMKLHTEAQIQEEGTVVELTGRQSSEITRTITKLSFVKVDSHFRQGIPFFGQVRLVDGKGVPIPNKVIFIRGNEANYYSNATTDEHGLVQFSINTTNVMGTSLTVRVNYKDRSPCYGYQWVSEEHEEAHHTAYLVFSPSKSFVHLEPMSHELPCGHTQTVQAHYILNGGTLLGLKKLSFYYLIMAKGGIVRTGTHGLLVKQEDMKGHFSISIPVKSDIAPVARLLIYAVLPTGDVIGDSAKYDVENCLANKVDLSFSPSQSLPASHAHLRVTAAPQSVCALRAVDQSVLLMKPDAELSASSVYNLLPEKDLTGFPGPLNDQDDEDCINRHNVYINGITYTPVSSTNEKDMYSFLEDMGLKAFTNSKIRKPKMCPQLEHGPEGEGEGEGIPENFFGVLYSEDLVVQISELEGRGSVEEPHTKLRKYFPETWIWDLVVVNSAGVAEVGVTVPDTITEWKAGAFCLSEDAGLGISSTASLRAFQPFFVELTMPYSVIRGEAFTLKATVLNYLPKCIRVSVQLEASPAFLAVPVEKEQAPHCICANGRQTVSWAVTPKSLGNVNFTVSAEALESQELCGTEVPSVPEHGRKDTVIKPLLVEPEGLEKETTFNSLLCPSGGEVSEELSLKLPPNVVEESARASVSVLGDILGSAMQNTQNLLQMPYGCGEQNMVLFAPNIYVLDYLNETQQLTPEIKSKAIGYLNTGYQRQLNYKHYDGSYSTFGERYGRNQGNTWLTAFVLKTFAQARAYIFIDEAHITQALIWLSQRQKDNGCFRSSGSLLNNAIKGGVEDEVTLSAYITIALLEIPLTVTHPVVRNALFCLESAWKTAQEGDHGSHVYTKALLAYAFALAGNQDKRKEVLKSLNEEAVKKDNSVHWERPQKPKAPVGHFYEPQAPSAEVEMTSYVLLAYLTAQPAPTSEDLTSATNIVKWITKQQNAQGGFSSTQDTVVALHALSKYGAATFTRTGKAAQVTIQSSGTFSSKFQVDNNNRLLLQQVSLPELPGEYSMKVTGEGCVYLQTSLKYNILPEKEEFPFALGVQTLPQTCDEPKAHTSFQISLSVSYTGSRSASNMAIVDVKMVSGFIPLKPTVKMLERSNHVSRTEVSSNHVLIYLDKVSNQTLSLFFTVLQDVPVRDLKPAIVKVYDYYETDEFAIAEYNAPCSKDLGNADYKDDDDKGASHHHHHH

Key:
Assay in all cases: cell-based or functional assay
MMP13 = MMP13 (human, UniProt P45452 104-471, limits assumed)
MMP7 = biological target: T1, MMP7
MMP2 = biological target: T2, MMP2
MMP8 = MMP8 (human, UniProt P22894 101-467, limits assumed)
Sequence of MMP8 (P22894 101-467 limits assumed): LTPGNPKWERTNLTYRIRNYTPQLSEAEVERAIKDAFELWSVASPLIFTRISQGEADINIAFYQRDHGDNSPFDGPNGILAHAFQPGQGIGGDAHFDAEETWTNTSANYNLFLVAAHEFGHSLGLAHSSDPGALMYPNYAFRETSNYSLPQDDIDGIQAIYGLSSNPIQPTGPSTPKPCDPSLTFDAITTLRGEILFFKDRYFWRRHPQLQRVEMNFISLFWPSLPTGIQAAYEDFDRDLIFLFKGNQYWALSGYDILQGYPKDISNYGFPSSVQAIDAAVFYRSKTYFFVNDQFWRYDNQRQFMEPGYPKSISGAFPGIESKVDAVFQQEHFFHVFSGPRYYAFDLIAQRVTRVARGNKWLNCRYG

MMP9 = MMP9 (human, UniProt P14780 107-707, limits assumed)
Sequence of MMP9 (P14780 107-707 limits assumed): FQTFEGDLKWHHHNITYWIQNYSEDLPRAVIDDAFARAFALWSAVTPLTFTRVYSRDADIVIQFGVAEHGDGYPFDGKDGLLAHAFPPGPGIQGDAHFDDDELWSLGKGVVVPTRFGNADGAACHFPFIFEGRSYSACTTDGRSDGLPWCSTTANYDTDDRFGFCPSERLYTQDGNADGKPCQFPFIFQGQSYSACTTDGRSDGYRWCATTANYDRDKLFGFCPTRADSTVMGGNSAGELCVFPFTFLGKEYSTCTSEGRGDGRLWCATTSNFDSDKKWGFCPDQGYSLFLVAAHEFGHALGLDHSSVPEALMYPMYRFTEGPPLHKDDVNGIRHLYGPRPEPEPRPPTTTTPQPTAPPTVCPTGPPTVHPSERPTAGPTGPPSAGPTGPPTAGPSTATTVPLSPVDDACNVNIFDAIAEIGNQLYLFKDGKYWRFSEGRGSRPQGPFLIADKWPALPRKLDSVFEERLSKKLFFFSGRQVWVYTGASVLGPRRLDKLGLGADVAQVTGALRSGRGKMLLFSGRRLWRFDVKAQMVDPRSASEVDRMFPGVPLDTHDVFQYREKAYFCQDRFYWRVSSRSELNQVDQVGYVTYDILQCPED

MMP3 = MMP3 (human, UniProt P08254 100-477, limits assumed)
Sequence of MMP3 (P08254 100-477 limits assumed): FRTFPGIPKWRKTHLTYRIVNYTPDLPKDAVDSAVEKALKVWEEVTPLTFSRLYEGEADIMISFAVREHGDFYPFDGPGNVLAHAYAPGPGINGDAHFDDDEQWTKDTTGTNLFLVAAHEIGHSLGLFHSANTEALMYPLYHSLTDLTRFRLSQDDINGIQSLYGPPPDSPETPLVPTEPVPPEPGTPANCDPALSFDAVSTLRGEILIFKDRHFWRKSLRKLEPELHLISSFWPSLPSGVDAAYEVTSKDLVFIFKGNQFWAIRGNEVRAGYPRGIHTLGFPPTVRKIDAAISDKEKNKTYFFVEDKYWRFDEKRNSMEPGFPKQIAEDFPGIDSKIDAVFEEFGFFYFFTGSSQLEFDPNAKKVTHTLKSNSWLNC

ADAMTS5 = biological target: T3, ADAMTS5
MMP1 = biological target: T4, MMP1
Cathepsin G = biological target: T5, Cathepsin G
Elastase = biological target: Elastase
ADAMTS4 = biological target: T6, ADAMTS4

Row | Binder | Protease Inhibition (% of WT) (MMP13) | Protease Inhibition (% of WT) (MMP7) | Protease Inhibition (% of WT) (MMP2) | Protease Inhibition (% of WT) (MMP8) | Protease Inhibition (% of WT) (MMP9) | Protease Inhibition (% of WT) (MMP3) | Protease Inhibition (% of WT) (ADAMTS5) | Protease Inhibition (% of WT) (MMP1) | Protease Inhibition (% of WT) (Cathepsin G) | Protease Inhibition (% of WT) (Elastase) | Protease Inhibition (% of WT) (ADAMTS4)
1 | B1 | 145 % of WT | 147 % of WT | 58 % of WT | 81 % of WT | 39 % of WT | 127 % of WT | 79 % of WT | 117 % of WT | 157 % of WT | 131 % of WT | 222 % of WT
2 | B2 | 56 % of WT | 64 % of WT | 33 % of WT | 28 % of WT | 9 % of WT | < 100 % of WT | 97 % of WT | 48 % of WT | 12 % of WT | 39 % of WT | 120 % of WT
